Here are results for three molecules from publication PMC7048932, “Examining sterically demanding lysine analogs for histone lysine methyltransferase catalysis” (Scientific Reports, 2020).

In one data set the target is T1, SETD7 (human) (UniProt Q8WTS6).
T1 sequence: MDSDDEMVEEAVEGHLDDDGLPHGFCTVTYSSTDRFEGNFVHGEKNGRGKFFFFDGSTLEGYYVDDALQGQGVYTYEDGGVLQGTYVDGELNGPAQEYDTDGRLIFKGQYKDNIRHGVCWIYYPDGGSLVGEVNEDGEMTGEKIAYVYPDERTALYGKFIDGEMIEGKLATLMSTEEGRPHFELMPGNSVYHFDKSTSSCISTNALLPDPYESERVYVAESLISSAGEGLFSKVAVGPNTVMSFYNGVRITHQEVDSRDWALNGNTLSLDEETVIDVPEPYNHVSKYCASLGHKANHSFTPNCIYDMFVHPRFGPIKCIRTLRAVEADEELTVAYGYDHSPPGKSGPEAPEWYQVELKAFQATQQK

In the next data set the target is G9a (human) (UniProt Q96KQ7).
The target of a further data set is GLP (human) (UniProt Q9H9B1).
Substrate in data set [1]: C[C@H](N)C(=O)N[C@@H](CCCNC(=N)N)C(=O)N[C@H](C(=O)N[C@@H](CCCCN)C(=O)N[C@@H](CCC(N)=O)C(=O)N[C@H](C(=O)N[C@@H](C)C(=O)N[C@@H](CCCNC(=N)N)C(=O)N[C@@H](CCC1CC1N)C(=O)N[C@@H](CO)C(=O)N[C@H](C(=O)NCC(=O)NCC(=O)N[C@@H](CCCCN)C(=O)N[C@@H](C)C(=O)O)[C@@H](C)O)[C@@H](C)O)[C@@H](C)O
Nature of the data set: Enzyme kinetics of G9a-catalyzed methylation (MALDI-TOF MS). The data set is classed as biochemical, human. The following applies: other: G9a-catalyzed methylation, MALDI-TOF MS assay; pH 8.0; 37.0 °C.

Chain of GLP (human) (Q9H9B1 whole entry): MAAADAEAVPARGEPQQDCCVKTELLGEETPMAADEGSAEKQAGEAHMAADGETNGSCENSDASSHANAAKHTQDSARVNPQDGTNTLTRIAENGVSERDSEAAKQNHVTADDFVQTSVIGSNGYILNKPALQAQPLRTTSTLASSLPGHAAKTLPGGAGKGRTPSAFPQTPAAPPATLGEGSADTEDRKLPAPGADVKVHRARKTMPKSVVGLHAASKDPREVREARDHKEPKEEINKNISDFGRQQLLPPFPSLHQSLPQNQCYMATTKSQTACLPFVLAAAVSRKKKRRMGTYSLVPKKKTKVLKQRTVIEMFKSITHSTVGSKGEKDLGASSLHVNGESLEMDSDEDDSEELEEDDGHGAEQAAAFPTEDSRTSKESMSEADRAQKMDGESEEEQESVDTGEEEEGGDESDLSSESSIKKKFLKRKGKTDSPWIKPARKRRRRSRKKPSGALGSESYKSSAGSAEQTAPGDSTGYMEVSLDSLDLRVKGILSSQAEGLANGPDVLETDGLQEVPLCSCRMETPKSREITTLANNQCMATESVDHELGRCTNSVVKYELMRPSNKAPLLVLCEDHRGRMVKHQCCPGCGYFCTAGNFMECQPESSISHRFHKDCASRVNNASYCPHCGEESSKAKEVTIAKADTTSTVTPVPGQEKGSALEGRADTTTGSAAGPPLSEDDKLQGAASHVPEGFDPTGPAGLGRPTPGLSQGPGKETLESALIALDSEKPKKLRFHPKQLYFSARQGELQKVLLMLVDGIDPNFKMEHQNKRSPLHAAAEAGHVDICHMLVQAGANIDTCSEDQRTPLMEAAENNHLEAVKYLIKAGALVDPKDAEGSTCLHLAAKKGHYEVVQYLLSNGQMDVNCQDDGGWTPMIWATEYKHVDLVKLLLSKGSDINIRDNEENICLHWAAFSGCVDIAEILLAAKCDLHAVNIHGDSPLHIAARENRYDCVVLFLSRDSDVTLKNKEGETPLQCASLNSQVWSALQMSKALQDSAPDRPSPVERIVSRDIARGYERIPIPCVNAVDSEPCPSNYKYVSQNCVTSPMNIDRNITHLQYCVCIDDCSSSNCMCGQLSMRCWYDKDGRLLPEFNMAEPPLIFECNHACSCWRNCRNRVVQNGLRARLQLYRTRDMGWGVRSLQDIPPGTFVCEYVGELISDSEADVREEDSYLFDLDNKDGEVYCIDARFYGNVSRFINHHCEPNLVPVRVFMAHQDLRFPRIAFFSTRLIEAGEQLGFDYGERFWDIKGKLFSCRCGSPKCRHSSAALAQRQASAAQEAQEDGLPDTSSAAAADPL

Molecule ARTYQTARKSTGGKA [H3K4 analog histone peptide with tyrosine (Y) at position 4] showed an IC50 of inhibition of SETD7 (100 nM) methylation of a 21-mer H3 peptide (residues 1–21, 5 µM) with SAM (20 µM), MALDI-TOF MS in the data set with SETD7 (human) greater than 100 µM.
In turn, ARTKQTARYSTGGKA [H3Y9 histone peptide] gave an IC50 of inhibition of G9a (100 nM) methylation of a 21-mer H3 peptide (residues 1–21, 5 µM) with SAM (20 µM), MALDI-TOF MS with G9a (human) greater than 100 µM. In the data set with GLP (human), this molecule showed an IC50 of inhibition of GLP (100 nM) methylation of a 21-mer H3 peptide (residues 1–21, 5 µM) with SAM (20 µM), MALDI-TOF MS greater than 100 µM.

B1: G9a (Homo sapiens) (protein)
chain: MAAAAGAAAAAAAEGEAPAEMGALLLEKETRGATERVHGSLGDTPRSEETLPKATPDSLEPAGPSSPASVTVTVGDEGADTPVGATPLIGDESENLEGDGDLRGGRILLGHATKSFPSSPSKGGSCPSRAKMSMTGAGKSPPSVQSLAMRLLSMPGAQGAAAAGSEPPPATTSPEGQPKVHRARKTMSKPGNGQPPVPEKRPPEIQHFRMSDDVHSLGKVTSDLAKRRKLNSGGGLSEELGSARRSGEVTLTKGDPGSLEEWETVVGDDFSLYYDSYSVDERVDSDSKSEVEALTEQLSEEEEEEEEEEEEEEEEEEEEEEEEDEESGNQSDRSGSSGRRKAKKKWRKDSPWVKPSRKRRKREPPRAKEPRGVNGVGSSGPSEYMEVPLGSLELPSEGTLSPNHAGVSNDTSSLETERGFEELPLCSCRMEAPKIDRISERAGHKCMATESVDGELSGCNAAILKRETMRPSSRVALMVLCETHRARMVKHHCCPGCGYFCTAGTFLECHPDFRVAHRFHKACVSQLNGMVFCPHCGEDASEAQEVTIPRGDGVTPPAGTAAPAPPPLSQDVPGRADTSQPSARMRGHGEPRRPPCDPLADTIDSSGPSLTLPNGGCLSAVGLPLGPGREALEKALVIQESERRKKLRFHPRQLYLSVKQGELQKVILMLLDNLDPNFQSDQQSKRTPLHAAAQKGSVEICHVLLQAGANINAVDKQQRTPLMEAVVNNHLEVARYMVQRGGCVYSKEEDGSTCLHHAAKIGNLEMVSLLLSTGQVDVNAQDSGGWTPIIWAAEHKHIEVIRMLLTRGADVTLTDNEENICLHWASFTGSAAIAEVLLNARCDLHAVNYHGDTPLHIAARESYHDCVLLFLSRGANPELRNKEGDTAWDLTPERSDVWFALQLNRKLRLGVGNRAIRTEKIICRDVARGYENVPIPCVNGVDGEPCPEDYKYISENCETSTMNIDRNITHLQHCTCVDDCSSSNCLCGQLSIRCWYDKDGRLLQEFNKIEPPLIFECNQACSCWRNCKNRVVQSGIKVRLQLYRTAKMGWGVRALQTIPQGTFICEYVGELISDAEADVREDDSYLFDLDNKDGEVYCIDARYYGNISRFINHLCDPNIIPVRVFMLHQDLRFPRIAFFSSRDIRTGEELGFDYGDRFWDIKSKYFTCQCGSEKCKHSAEAIALEQSRLARLDPHPELLPELGSLPPVNT
notes: His6 (N); made in house; host or cells: E. coli BL21 (DE3)pLysS-rosetta
In the case of B1, in data set [1], the Km came out at 22.6 ± 5.0 µM, the kcat is 0.0463 ± 0.0005 s⁻¹ and the kcat/Km is 2070 M⁻¹ s⁻¹.

One may read the Km as the concentration of substrate that gives half-maximal velocity. As a reminder, the kcat is the number of substrate molecules converted per active site and unit of time at saturation. Usually kcat/Km stands for the turnover number divided by the Michaelis constant.
